B1: Phorbol-12-myristate-13-acetate-induced protein 1 (Mus musculus), Q9JM54 (parent)
chain: MPGRKARRNAPVNPTRAELPPEFAAQLRKIGDKVYCTWSAPDITVVLAQMPGKSQKSRMRSPSPTRVPADLKDECAQLRRIGDKVNLRQKLLNLISKLFNLVT
B2: Bcl-2-binding component 3 (Mus musculus), Q99ML1 (parent)
chain: MARARQEGSSPEPVEGLARDSPRPFPLGRLMPSAVSCSLCEPGLPAAPAAPALLPAAYLCAPTAPPAVTAALGGPRWPGGHRSRPRGPRPDGPQPSLSPAQQHLESPVPSAPEALAGGPTQAAPGVRVEEEEWAREIGAQLRRMADDLNAQYERRRQEEQHRHRPSPWRVMYNLFMGLLPLPRDPGAPEMEPN

Variants of: B1
Conditions: with mcl1_mouse Mcl1, P97287
Chain of mcl1_mouse Mcl1, P97287 (P97287 whole entry): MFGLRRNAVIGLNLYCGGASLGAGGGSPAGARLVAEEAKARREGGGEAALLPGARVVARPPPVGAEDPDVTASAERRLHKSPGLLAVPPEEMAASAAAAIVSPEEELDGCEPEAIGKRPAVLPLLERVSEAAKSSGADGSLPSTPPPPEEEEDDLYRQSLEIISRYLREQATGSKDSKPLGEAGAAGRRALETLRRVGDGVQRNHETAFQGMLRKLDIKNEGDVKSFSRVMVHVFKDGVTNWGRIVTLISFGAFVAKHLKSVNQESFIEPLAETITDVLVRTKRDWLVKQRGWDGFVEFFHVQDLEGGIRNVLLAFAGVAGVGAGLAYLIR

Variant	effect of a mutation on the interaction
MPGRKARRNAPVNPTRAELPPEFAAQLRKIGDKVYCTWSAPDITVVLAQMPGKSQKSRMRSPSPTRVPADLKDFCAQLRRIGDKVNLRQKLLNLISKLFNLVT [E74F]	increasing interaction strength

Variants of: B2
Conditions: with mcl1_mouse Mcl1, P97287

Variant	effect of a mutation on the interaction
MARARQEGSSPEPVEGLARDSPRPFPLGRLMPSAVSCSLCEPGLPAAPAAPALLPAAYLCAPTAPPAVTAALGGPRWPGGHRSRPRGPRPDGPQPSLSPAQQHLESPVPSAPEALAGGPTQAAPGVRVEEEEWAREIGAQLRRIADDLNAQYERRRQEEQHRHRPSPWRVMYNLFMGLLPLPRDPGAPEMEPN [M144I]	increasing interaction
